Positions count from the first letter of the chain named.

From patent publication US20250042970A1 (AURINIA PHARMACEUTICALS, published 2025) come the findings set out here.

Experiment [1] concerns the target T1, FLAG-tagged human BAFF (human, UniProt Q9Y275 134-285, limits assumed).
T1 construct: used in BIACORE (Ex. 9) and KINEXA (Ex. 11); also called huBAFF
The experiment is described as follows: KinExA. On the procedure: Equilibrium measurements were performed using FLAG-tagged, recombinant huBAFF and huAPRIL ligands. Fixed ligand concentrations of human BAFF or human APRIL were incubated with serial dilutions of the variant BCMA ECD-Ig fusion polypeptides, and free ligand was detected in a KINEXA 3200 Instrument. variant BCMA ECD-Ig fusion polypeptides were first diluted in equilibration buffer (1×PBS, pH 7.4, 1 mg/ml BSA) to a range of concentrations from 10 nM to 100 fM. The linear portion of the dilution series was typically 2-fold. Ligands were diluted in equilibration buffer to fixed concentrations ranging from 5 to 20 pM and then incubated with the variant BCMA-Ig dilutions in total reaction volumes ranging from 4.5 to 15 ml. Samples were incubated at room temperature for 48-72 hours to reach equilibrium. For each data point, a fresh column of 850 μl of bead slurry coated with Variant BAv-238475-Ig was introduced into the KINEXA flow cell. Equilibrated samples ranging from 1 to 5 ml reaction volume were injected at a flow rate of 0.25 ml/min. […] The DyLight 649 fluorescent signal was detected using the red filter set (620/30 nanometer excitation filter, 670/40 nanometer emission filter, 645 nanometer dichroic filter) on the KinExA instrument and converted to a voltage signal that was directly proportional to the concentration of free ligand in the equilibrated sample.
The various fusion proteins described above were expressed and purified as described previously (Examples 2 and 3 for the CET1019AS based plasmids and Examples 7 and 8 for the pcDNA based plasmids). […] The BAv9-1-Ig Fc proteins typically exist in solution as a dimeric fusion protein. The purified fusion proteins were assayed for binding activity using BIACORE (Example 9) and KINEXA (Example 11) assays.
On the technique in general: In KinExA the mixture passes briefly over coated beads that capture the unbound partner.

Experiment [2] has as its target T1, FLAG-tagged human BAFF. The experiment is described as follows: BIACORE SPR. An excerpt: (§1) The standard kinetic assay measures binding kinetics of trimeric ligand (e.g., human BAFF, cynomolgus monkey APRIL, mouse BAFF, or mouse APRIL) coated on sensor chips and dimeric analytes (e.g., variant BCMA-Ig fusion proteins) in the mobile phase. […] For human BAFF, cynomolgus monkey APRIL, and mouse APRIL measurements, mouse monoclonal antibody (IgG1) anti-FLAG M2 (Sigma Aldrich, Cat. No. F1804) was immobilized on CM3 sensor chips (GE Healthcare, Cat. No. BR-1005-41) according to the manufacturer's protocol. Antibody was diluted to 30 μg/ml in immobilization buffer (10 mM pH 5±0.20; GE Healthcare; GE Healthcare, Catalog No. BR-1003-51). […] Unreacted sites were quenched with 35 μl of 1M ethanolamine-HCl, pH 8.5 (GE Healthcare, GE Healthcare, Cat. No. BR-1000-50). This procedure typically yielded 3,000-4,000 response units (RU) of coupled antibody.
(§2) The fusion polypeptides were diluted in HBS-EP buffer and flowed over ligand-coated sensor chips. The variant BCMA-Ig and surrogate control fusion proteins were injected at three concentrations (1.5 nM, 15 nM, and 150 nM at 30 μl/min for 2 minutes per association phase) in a single binding cycle, followed by a 20 minute incubation with HBS-EP buffer containing no protein at the same flow rate. A similar protocol was followed for Z-TACI-Ig, except that the injections were at 4.5 nM, 45 nM, and 450 nM.
(§3) The analyses described above were performed on protein preparations of representative variant BCMA ECD-Ig fusion polypeptides, as well as the Z-TACI-Ig and [S40G]huBCMA ECD-Ig control fusion polypeptides, and the data is presented in Table 1.
A general note: SPR reads the build-up and loss of mass on a sensor chip optically.

Experiment [3] deals with T2, FLAG-tagged cynomolgous APRIL (cynomolgus monkey, UniProt A0ACM8R0G4 110-250 (rhesus entry)).
T2 construct: FLAG-tagged, expressed with TPA signal peptide; also called cyAPRIL
T2 sequence: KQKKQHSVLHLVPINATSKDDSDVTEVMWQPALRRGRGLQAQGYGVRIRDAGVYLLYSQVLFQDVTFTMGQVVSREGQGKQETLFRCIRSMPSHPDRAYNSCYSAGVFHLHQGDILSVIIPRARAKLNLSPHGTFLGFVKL
Description: BIACORE SPR.
Excerpt: as §1, §2, §3

For experiment [4], the target named is T1, FLAG-tagged human BAFF. Description: BIACORE SPR. The protocol:
(§4) For human BAFF, cynomolgus monkey APRIL, and mouse APRIL measurements, mouse monoclonal antibody (IgG1) anti-FLAG M2 (Sigma Aldrich, Cat. No. F1804) was immobilized on CM3 sensor chips (GE Healthcare, Cat. No. BR-1005-41) according to the manufacturer's protocol. Antibody was diluted to 30 μg/ml in immobilization buffer (10 mM pH 5±0.20; GE Healthcare; GE Healthcare, Catalog No. BR-1003-51). […] Unreacted sites were quenched with 35 μl of 1M ethanolamine-HCl, pH 8.5 (GE Healthcare, GE Healthcare, Cat. No. BR-1000-50). This procedure typically yielded 3,000-4,000 response units (RU) of coupled antibody.
as §2
(§5) Sequence optimization involved generating revertants from the variant BCMA ECD-Ig molecules using standard site-directed mutagenesis methods such as by SOEing as described herein above. Single as well as multiple revertants from twelve different variant-BCMA-pIg18 were generated, cloned in the pcDNA3.1 vector (Life Technologies, as described in Example 6), expressed and purified as described in Examples 6-8. The resulting proteins were assayed for their binding characteristics using Surface Plasmon Resonance as described in Example 9.
The source holds these as a separate data set.

The target of experiment [5] is T2, FLAG-tagged cynomolgous APRIL. Description: BIACORE SPR. On the procedure: as §4, §2, §5
This is another data set of the same source.

B1: BAv9-1-5L-pIg23 (Fc fusion, human)
chain: AGQCSQNEYFDHLIRACIPCQLRCSSNTPPLTCQRYCNAGVTNSVGGGGS
notes: domain: Fc; not shown: PIg23: PIg22 Fc with valine at 178 mutated to methionine
Broadly, the Kd is the equilibrium constant for the complex coming apart. As to B1, in the experiment with FLAG-tagged human BAFF [1], the Kd was 0.291 pM.

B2: BAv66-Ig (Fc fusion, human)
chain: AGQCSQNEYFDHLIRACIPCQGRCSSNTPPLTCQRYCNAGVTNSVKGTNAERKSSVECPPSPAPPVAGPSVFLFPPKPKDTLMISRTPEVTCVVVDVSHEDPEVQFNWYVDGVEVHNAKTKPREEQFNSTFRVVSVLTVVHQDWLNGKEYKCKVSNKGLPAPIEKTISKTKGQPREPQVYTLPPSREEMTKNQVSLTCLVKGFYPSDISVEWESNGQPENNYKTTPPMLDSDGSFFLYSKLTVDKSRWQQGNVFSCSVMHEALHNHYTQKSLSLSPGK
notes: domain: Fc; also called Variant BAv66-Ig
B2: the “fold improvement KD vs control” value in the experiment with FLAG-tagged human BAFF [2] was 1.3 fold; in experiment [3], 0.00024 fold.

B3: Variant 50239978-Ig (Fc fusion, human)
chain: B2 chain with G2R, Q6P, F10Y, H12S, I18V, G22L, T28N, L31V
notes: domain: Fc; also called Parent 12
With B3, the entries for the “fold improvement over control” value (in the experiment with FLAG-tagged human BAFF [4]; in experiment [5]) were 10.1 fold and 0.6 fold, respectively.

B4: Variant 50238779-Ig (Fc fusion, human)
chain: B2 chain with G2Q, H12R, I14V, R15N, A16S, I18V, Q21R, G22L, T28N, R35H
notes: domain: Fc; also called Parent 1
For B4, the “fold improvement over control” value with FLAG-tagged human BAFF [4] came out at 6.4 fold; in experiment [5], 0.5 fold.

B5: Variant 50239040-Ig (Fc fusion, human)
chain: B2 chain with G2R, Q6P, N7S, F10Y, A16S, I18V, G22L, L31V, N38D
notes: domain: Fc; also called Parent 10
In the case of B5, the results for the “fold improvement over control” value (with FLAG-tagged human BAFF [4]; in experiment [5]) were 9.3 fold and 0.3 fold, respectively.

B6: Variant 50240054-Ig (Fc fusion, human)
chain: B2 chain with G2Q, Q6P, H12R, G22L, L31V, A39T
notes: domain: Fc; also called Parent 2
With B6, the “fold improvement over control” value in the experiment with FLAG-tagged human BAFF [4] came to 6.4 fold; in experiment [5], 0.7 fold.

B7: Variant 50239698-Ig (Fc fusion, human)
chain: B2 chain with G2R, F10Y, H12R, I14L, A16S, I18V, Q21H, G22V, T28N, L31V
notes: domain: Fc; also called Parent 5
For B7, the “fold improvement over control” value with FLAG-tagged human BAFF [4] came out at 5.5 fold; in experiment [5], 0.9 fold.
